Results as given in patent US11872270B2, “A*03 restricted peptides for use in immunotherapy against cancers and related methods” (Immatics Biotechnologies GmbH, priority 2018, dated 2024).

What was measured:
CD8+ T cells = assay: In vitro T-cell priming assay (immunogenicity) with aAPCs loaded with peptide/MHC complexes and anti-CD28 antibody; format: cell-based, human; conditions: for Wells positive [%]: in vitro immunogenicity; for in vitro immunogenicity (peptide-specific CD8+ T cell response): healthy donors, multimer staining after three cycles of stimulation
HLA-A*03:01 = HLA-A*03:01 (Homo sapiens, UniProt P04439); assay: MHC binding assay (UV-ligand exchange, β2m ELISA); conditions: for Peptide exchange (MHC class I binding score, peptide exchange yield): binding to HLA-A*03:01, UV-ligand exchange, β2m ELISA
Procedure, shortened: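 Peptide-MHC complexes formed by UV-ligand exchange of a UV-cleavable peptide for the test peptide; exchange yield quantified by β2m ELISA. Streptavidin-coated capture, samples diluted 100-fold, 1 h at 37 °C, HRP anti-β2m detection, TMB read at 450 nm against HLA-A*02:01/MLA-001 monomer standards (15–500 ng/ml).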

[1] = HLA-A*03 restricted peptides, Table 10b

Substance | Peptide exchange (MHC class I binding score, peptide exchange yield) (HLA-A*03:01) | also measured
29 (KVLSILSRLK; listed as Homo sapiens) [compound 29] | +++ (>50 = +++) | Wells positive [%] (CD8+ T cells; [1]): “+” (1-19% = +)
33 (KLLEDMVEK; listed as Homo sapiens) [compound 33] | ++ (>20% = ++) | Wells positive [%] (CD8+ T cells; [1]): “+” (1-19% = +)
45 (KCYEVGMMK; listed as Homo sapiens) [compound 45] | ++++ (>75% = ++++) | Wells positive [%] (CD8+ T cells; [1]): “+” (1-19% = +)
46 (VVTGNVPLK; listed as Homo sapiens) [compound 46] | +++ (>50 = +++) | Wells positive [%] (CD8+ T cells; [1]): “+” (1-19% = +)
52 (GMYEYGSIEK; listed as Homo sapiens) [compound 52] | ++++ (>75% = ++++) | Wells positive [%] (CD8+ T cells; [1]): “+” (1-19% = +)
57 (RVLYRPQLEK; listed as Homo sapiens) [compound 57] | +++ (>50 = +++) | Wells positive [%] (CD8+ T cells; [1]): “+” (1-19% = +)
64 (SVLSRMLVR; listed as Homo sapiens) [compound 64] | ++++ (>75% = ++++) | Wells positive [%] (CD8+ T cells; [1]): “+” (1-19% = +)
69 (GLSTILLYH; listed as Homo sapiens) [compound 69] | ++++ (>75% = ++++) | Wells positive [%] (CD8+ T cells; [1]): “+” (1-19% = +)
71 (VLYELGIIGNNK; listed as Homo sapiens) [compound 71] | +++ (>50 = +++) | Wells positive [%] (CD8+ T cells; [1]): “+” (1-19% = +)
77 (VVDDSQLPK; listed as Homo sapiens) [compound 77] | ++ (>20% = ++) | Wells positive [%] (CD8+ T cells; [1]): “+” (1-19% = +)
81 (HLFLPFSYK; listed as Homo sapiens) [compound 81] | ++++ (>75% = ++++) | Wells positive [%] (CD8+ T cells; [1]): “+” (1-19% = +)
210 (KIFQGQINK; listed as Homo sapiens) [compound 210] | ++++ (>75% = ++++) | –
211 (VSLGTPIMK; listed as Homo sapiens) [compound 211] | +++ (>50 = +++) | –
212 (RTIDRSVFK; listed as Homo sapiens) [compound 212] | ++++ (>75% = ++++) | –
213 (KLYPTHACR; listed as Homo sapiens) [compound 213] | ++++ (>75% = ++++) | –
214 (KLFTSVFGVGLK; listed as Homo sapiens) [compound 214] | ++++ (>75% = ++++) | Wells positive [%] (CD8+ T cells; [1]): “+” (1-19% = +)
215 (KIWQNLRLK; listed as Homo sapiens) [compound 215] | +++ (>50 = +++) | –
216 (RVSSVKLISK; listed as Homo sapiens) [compound 216] | +++ (>50 = +++) | –
217 (RVYEGDGRNSLK; listed as Homo sapiens) [compound 217] | +++ (>50 = +++) | –
218 (KAFNQSSIFTK; listed as Homo sapiens) [compound 218] | +++ (>50 = +++) | –
219 (ALERKFRQK; listed as Homo sapiens) [compound 219] | ++++ (>75% = ++++) | –
220 (ALPRQAFHSK; listed as Homo sapiens) [compound 220] | ++++ (>75% = ++++) | –
221 (RLAVSTRGK; listed as Homo sapiens) [compound 221] | ++++ (>75% = ++++) | –
222 (RSNPYFQNK; listed as Homo sapiens) [compound 222] | ++++ (>75% = ++++) | –

Substance | Peptide exchange (MHC class I binding score, peptide exchange yield) (HLA-A*03:01) | also measured
223 (GISNPITTSK; listed as Homo sapiens) [compound 223] | ++++ (>75% = ++++) | –
224 (SLYDGFLSY; listed as Homo sapiens) [compound 224] | ++++ (>75% = ++++) | –
225 (RVYPRPPSKTY; listed as Homo sapiens) [compound 225] | ++++ (>75% = ++++) | –
226 (RVWLGKHYK; listed as Homo sapiens) [compound 226] | ++++ (>75% = ++++) | –
232 (AVAPPTPASK; listed as Homo sapiens) [compound 232] | – | Wells positive [%] (CD8+ T cells; Table 10a): + (<20% = +)
233 (KTYETNLEIKK; listed as Homo sapiens) [compound 233] | – | Wells positive [%] (CD8+ T cells; Table 10a): + (<20% = +)
234 (VVFPFPVNK; listed as Homo sapiens) [compound 234] | – | Wells positive [%] (CD8+ T cells; Table 10a): + (<20% = +)
237 (VLYGPAGLGK; listed as Homo sapiens) [compound 237] | – | Wells positive [%] (CD8+ T cells; Table 10a): + (<20% = +)
248 (GLASRILDAK; listed as Homo sapiens) [compound 248] | – | Wells positive [%] (CD8+ T cells; Table 10a): + (<20% = +)
249 (ATSGVPVYK; listed as Homo sapiens) [compound 249] | – | Wells positive [%] (CD8+ T cells; Table 10a): ++++ (>=70% = ++++)
252 (AVYNYPEGAAY; listed as Homo sapiens) [compound 252] | ++++ (>75% = ++++) | –
253 (KLSLSHKK; listed as Homo sapiens) [compound 253] | +++ (>50 = +++) | –
254 (SVLDKLLFH; listed as Homo sapiens) [compound 254] | ++++ (>75% = ++++) | –
256 (AVIGALLAVGATK; listed as Homo sapiens) [compound 256] | +++ (>50 = +++) | –
258 (QVRDTLKIVFK; listed as Homo sapiens) [compound 258] | +++ (>50 = +++) | –
259 (RSYVPLAH; listed as Homo sapiens) [compound 259] | ++++ (>75% = ++++) | –
261 (AVAQKLLSH; listed as Homo sapiens) [compound 261] | ++++ (>75% = ++++) | –
262 (TMWQIPQEFVK; listed as Homo sapiens) [compound 262] | ++++ (>75% = ++++) | –
271 (RLPLRVVKH; listed as Homo sapiens) [compound 271] | ++++ (>75% = ++++) | –
272 (AVCGGVLVH; listed as Homo sapiens) [compound 272] | ++++ (>75% = ++++) | –
ATSGVPVYK (listed as Homo sapiens) [SEQ ID NO: 249] | – | in vitro immunogenicity (peptide-specific CD8+ T cell response) (CD8+ T cells): peptide-specific in vitro CD8+ T cell responses
AVCGGVLVH (listed as Homo sapiens) [SEQ ID NO: 272] | – | binding to HLA-A*03 (HLA-A*03:01): binds to HLA-A*03
GLASRILDAK (listed as Homo sapiens) [SEQ ID NO: 248] | – | in vitro immunogenicity (peptide-specific CD8+ T cell response) (CD8+ T cells): peptide-specific in vitro CD8+ T cell responses
RLPLRVVKH (listed as Homo sapiens) [SEQ ID NO: 271] | – | binding to HLA-A*03 (HLA-A*03:01): binds to HLA-A*03
